Assay: yeast display, Sf9 membrane polyspecificity reagent, FACS + sequencing; frameworks hold sequencing errors
In short: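 Polyreactivity labels are assigned by the sorting gate from which each nanobody was recovered. The gates were low and high (top ~1%), set on anti-HA fluorescence for expression and streptavidin fluorescence for reagent binding. Before sorting, galactose-induced (36–48 hours) yeast display cells were stained for 1 hour at 4 °C with 10% biotinylated, detergent-solubilized Sf9 membrane reagent.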

| Sequence | polyreactivity (PSR sort gate) |
| --- | --- |
| QVQLVESGGGLVQAGGSLRLSCAASGRTFGPYAMGWSRQAPGKERELVAAITWSGGSTYYADSVKGRFTISRDNAKNTVYLQMNSLKPEDTAVYYCAAKFSIWTLKKYYYWGQGTQVTVSS | high polyreactivity |
| QVQLVESGGGLVQAGGSLRLSCAASGRTFGPYAMGWYRQPPGKEREFVAAISYSGGSTYYADSVKGRLTISRDNAKNTVDLQMNSLKPEVTAVYYCAVDIDANSGTRDYWGQGTQVTVSS | low polyreactivity |
| QVQLVESGGGLVQAGGSLRLSCAASGRTFGPYSMGWYRQAPGKERELVAAISSSGSTTYYADSVKGRFTISRDNAKNTVYLQMNSLKPEDTAVYYCAKPSSRDSPYDYWGQGSQVTVSS | low polyreactivity |
| QVQLVESGGGLVQAGGSLRLSCAASGRTFGPYTMGGYIQAPGKEREFVAAIRSRGDTTYYADSVKGRFTISRDNAKNTVYLQMNSLKPEDTAVYYCAARSYFLVAGSRYDYWGQGTQVTVSS | high polyreactivity |
| QVQLVESGGGLVQAGGSLRLSCAASGRTFGPYTMGWYRQAPGKERELVATIRSDNTYYADSVKGRFTISRDNAKNTVYLQMNSLKPEDTAVYYCNAGYYSRYSYPYKYYYWGQGTQVTVSS | high polyreactivity |
| QVQLVESGGGLVQAGGSLRLSCAASGRTFGQHAMGWYRQAPGKDRELVASIRSGGITDYADSVKGRFTISRDNAKNTVYLQMNSLKPEDTAVYYCNAEGVWWSTRYDSWGQGTQVTVSS | low polyreactivity |
| QVQLVESGGGLVQAGGSLRLSCAASGRTFGQNTMGWYRQAPGKERELVAAIRNRGGSTYYADSVKGRFTISRDNAKKTGYVQMNSLKPEDTAVYYCAAYPYWKGDYWGQGTQVTVSS | high polyreactivity |
| QVQLVESGGGLVQAGGSLRLSCAASGRTFGQYAMGLYRQAPGKERELVAAITTRGGSTYYADSVKGRFTISRDNAKNTVYLQMNSLKPEDTAVYYCNADYPVKRRRGRDYWGQGTQVTVSS | high polyreactivity |
| QVQLVESGGGLVQAGGSLRLSCAASGRTFGQYAMGWYRQAPGKEREFVAAITSSGGSTYYADSVNGRFTISRDNAKNTVYLLMNSLNPEDTAVYYCAAPISRSAGWDSYDYWGQGTQVTVSS | low polyreactivity |
| QVQLVESGGGLVQAGGSLRLSCAASGRTFGQYVMGWYREAPGKERELVAAIRSGGSTYYADSVKGRFTISRDNAKNTVYLQMNSLKPEDTAVYYCANETYYGTDNFGQVGGEMDYWGQGTQVTVSS | low polyreactivity |
| QVQLVESGGGLVQAGGSLRLSCAASGRTFGRNAMGWYRQAPGKERELVAAISLRGGRTYYADSVKGRFTISRDNAKNTVYLQMNSLKPEDTAVYYCAAVQPVGLYPRTKYYYWGQGTQVTVSS | high polyreactivity |
| QVQLVESGGGLVQAGGSLRLSCAASGRTFGRNAMGWYRQAPGKERELVAAISSSADRTYYADSVKGRFTISRDNAKNNVYVEMNSLKPEDTAVYYCAARTFWGAYDYWGQGTQVTVSS | high polyreactivity |
| QVQLVESGGGLVQAGGSLRLSCAASGRTFGRNAMGWYRQAPGKERELVAAISSSGGRTYYADSVKGRFTISRDNAKNTVYLQMNSLKPEDTAVYYCNALTYYRDYWGQGTQVTVSS | high polyreactivity |
| QVQLVESGGGLVQAGGSLRLSCAASGRTFGRNAMGWYRQATGKERELVAPISRDGSTYYADSVKGRFTISRDNAKNTVYLQMNSLKPEDTAVYYCAADRPWYYTLTPIHGYDYWGQGTQVTVSS | low polyreactivity |
| QVQLVESGGGLVQAGGSLRLSCAASGRTFGRNVMGWYRQAPGKERELVAAISRSGGSTYYADSVKGRFTISRDNAKNTVYLQINSLKPEDTAVYYCAAYSVGDYYWGQGTQVTVSS | high polyreactivity |
| QVQLVESGGGLVQAGGSLRLSCAASGRTFGRYALGWYRQAPGKERELVATITSGGSTNYADSVKGRFTISRDNAKNTVYLQMNSLKPEDTAVYYCAAEFSPSRWAYSEGALRYNYWGQGTQVTVSS | low polyreactivity |
